Measured values taken from patent US20230265169A1 (US Dept. of Health and Human Services, published 2023).
Residue numbers refer to the chain shown, from its start.

B1: 90-C4 antibody (antibody, V domains shown)
VH: QVQLQESGPGLVKPSGTLSLTCAVSGGSINSSNWWSWVRQPPGKGLEWIGEIYYSGSTNYNPSLKSRVTTSVDNSKNQFSLKLSSVTAADTAVYYCATFDSGGYNPNWFDPWGQGTLVTVSS
VL: QSALTQPPSVSGAPGQRVTISCTGSSSSIGAGYDVHWYQQLPGTAPKLLIYGNSNRPSGVPDRFSGSKSGTSASLAITGLQAEDEADYYCQSYDSSLSGYVFGTGTKVTVLG
B2: 90-E5 antibody (antibody, V domains shown)
VH: QVQLVQSGAEVKKPGSSVKVSCKASGGTFSSYTINWVRQAPGQGLEWMGGIIPIFGTANYAQKFQGRVTITADASTSTAYMELSSLRSEDTAVYYCARVLLRSSSWFSSNWFDPWGQGTLVTVSS
VL: QSVLTQPPSVSGAPGQRVTISCTGSSSNIGAGYDVHWYQQLPGTAPKVLIYGNSNRPSGVPDRFSGSKSDTSASLAITGLQAEDEADYYCQSYDSSLSVVFGGGTKLTVLG
B3: 90-F2 antibody (antibody, V domains shown)
VH: QVQLVQSGAEVKKPGASVKVSCKASGYTFTTYYMHWVRQAPGQGLEWMGIINPSGGSTSYAQKFQGRVTMTRDTSTSTVYMELSSLRSEDTAVYYCARGAVVVILDYWGQGTLVTVSS
VL: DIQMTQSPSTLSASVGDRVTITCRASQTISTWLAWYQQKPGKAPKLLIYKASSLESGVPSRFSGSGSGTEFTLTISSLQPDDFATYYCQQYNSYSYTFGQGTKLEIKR
B4: 90-E6 antibody (antibody, V domains shown)
VH: EVQLVESGGGLVQPGRSLRLSCAASGFTFDDHAMHWVRQAPGKGLEWVSGFSWNSGSIGYADSVKGRFTISRDNAKNSLYLQMNSLRAEDTALYYCAKDRRSDYYFYGMDVWGQGTTVTVSS
VL: QSVLTQPPSVSAAPGQKVTISCSGSRSNIGNNYVSWYQQLPGTAPKLLIYDNNKRPSGIPDRFSGSKSGTSATLGITGLQTGDEADYYCGTWDSSLNAGVFGGGTKLTVLG
B5: 77-A6 antibody (antibody, V domains shown)
VH: EVQLLESGGGLVQPGGSLRLSCADSGLTFSSYAMSWVRQAPGKGLEWVSAISVSGGSTYYSDSVKGRFTISRDNSKNTLSLQMNSLRAEDTAVYYCVKARSIVGPFDYWGQGTLVTVSS
VL: B4 VL with V3A, R26S, Q39H, N53I, K54M, S94T, N97S, G99V
B6: 77-A5 antibody (antibody, V domains shown)
VH: QVQLVQSGAEVKKPGSSVKVSCKASGGTFRSHAISWVRQAPGQGLEWMGGIIPIFASANYAQKFQGRVTITADESTSTAYMDLSSLRSDDTAVYYCAKNVSPKSYSGRYSISYFYGVDVWGQGTTVTVSS
VL: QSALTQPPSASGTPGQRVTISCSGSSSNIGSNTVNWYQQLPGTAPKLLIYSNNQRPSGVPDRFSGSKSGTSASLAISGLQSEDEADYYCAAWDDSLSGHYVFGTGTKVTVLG
B7: 90-A3 antibody (antibody, V domains shown)
VH: QVQLVQSGAEVKKPGASVKVSCMTSGYTFTSYGISWVRQAPGQGLEWMGWISAYNGNTNYAQKLQGRVTMTTDTSTSTAYMELRSLRSDDTAVYYCARDRGAYWDCGGDCYLSAFDYWGQGTLVTVSS
VL: B4 VL with S2A, L4V, R26S, N97S, G99V
B8: 90-A9 antibody (antibody, V domains shown)
VH: QVQLVQSGAEVKKPGSSVKVSCKASGGTFSSFPISWVRQAPGQGLEWMGGIIPIFGAANYAQKFQGRVTITADESTSTAYMELSSLRSEDTAVYYCARNYEEIVVIPAIMNFGYWGQGTLVTVSS
VL: EIVLTQSPGTLSLSPGERATLSCRASQSVASSYLAWYQQKPGQAPRLLIYGTSSRATGIPDRFSGSGSGADFTLTISRLEPEDFAVYYCQQYGTSPLTFGGGTKVEIK
B9: 90-B7 antibody (antibody, V domains shown)
VH: EVQLLESGGGLVKPGGSLRLSCAASGFTFGSYSMTWVRQAPGKGLEWVSSISSSSSYIYYADSVKGRFTISRDNAKNSLFLQMNSLRAEDTAVYYCARGNGYCSHNSCYKIGVWFDPWGQGTLVTVSS
VL: B4 VL with S2A, L4V, R26S, N97S, G99F, G103T, L107V
B10: 90-B2 antibody (antibody, V domains shown)
VH: QVQLQESGPGLVKPSETLSLTCTVSGGSISSSSYYWGWIRQPPGKGLEWIGSIYYSGNTYYNPSLKSRVTISVDTSKNHFSLRLSSVTAADTAVYFCARSLPHYDSTGYLLYWGQGTLVTVSS
VL: EIVLTQSPATLSLSPGGRATLSCRASQSVSRYLAWYQQKPGRAPRLLIYDASNRAPGIPARFSGSGSGTDFTLTISSLEPEDFAVYYCQQRSNWPQTTFGPGTKVDIKR
B11: 90-F1 antibody (antibody, V domains shown)
VH: QVQLVQSGAEVKRPGSSVKVSCKTSGGTFNNNAINWVRQAPGQGLEWMGGIIPFFGIAKYAQKFQGRVTITADESTSTAYMELSSLRSEDTAVYYCARDLPRESSYGSGSYYTHYYAMDVWGQGTTVTVSS
VL: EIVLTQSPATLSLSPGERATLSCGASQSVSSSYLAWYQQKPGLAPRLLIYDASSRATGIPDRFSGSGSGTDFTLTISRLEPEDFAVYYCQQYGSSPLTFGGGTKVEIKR

Molecular target: MERS-CoV full-length spike trimer antigen (amino acids 1 to 1275 of the spike protein, lacking the … (MERS-CoV, UniProt K9N5Q8 18-1275))
Test: not given

| Binder | EC50 (read off the curve) [µg/mL] |
| --- | --- |
| B1 | ~0.08 |
| B2 | ~0.01 |

Molecular target: T1, MERS-CoV S1 antigen (S1 domain, amino acids 1 to 757 of the spike protein) (MERS-CoV, UniProt K9N5Q8 18-757)
Test: not given

| Binder | EC50 (read off the curve) [µg/mL] |
| --- | --- |
| B2 | ~0.03 |

Molecular target: T2, MERS-CoV RBD antigen (receptor binding domain, amino acids 377 to 588 of the spike protein) (MERS-CoV, UniProt K9N5Q8 377-588)
Test: not given

| Binder | EC50 (read off the curve) [µg/mL] |
| --- | --- |
| B3 | ~0.07 |
| B4 | ~0.09 |
| B5 | ~0.06 |
| B6 | ~0.008 |
| B2 | ~0.07 |

Molecular target: T2, MERS-CoV RBD antigen (receptor binding …)
Test: ELISA, RBD antigen coated

| Binder | binding result |
| --- | --- |
| B7 | no binding (tested: up to 10 µg/ml) |
| B1 | no binding (tested: up to 10 µg/ml) |
| B8 | no binding (tested: up to 10 µg/ml) |

Molecular target: T3, MERS-CoV spike protein on live MERS-CoV (EMC, KNIH-002, KNIH-016 and KNIH-042 strains) (MERS-CoV)
T3 chain: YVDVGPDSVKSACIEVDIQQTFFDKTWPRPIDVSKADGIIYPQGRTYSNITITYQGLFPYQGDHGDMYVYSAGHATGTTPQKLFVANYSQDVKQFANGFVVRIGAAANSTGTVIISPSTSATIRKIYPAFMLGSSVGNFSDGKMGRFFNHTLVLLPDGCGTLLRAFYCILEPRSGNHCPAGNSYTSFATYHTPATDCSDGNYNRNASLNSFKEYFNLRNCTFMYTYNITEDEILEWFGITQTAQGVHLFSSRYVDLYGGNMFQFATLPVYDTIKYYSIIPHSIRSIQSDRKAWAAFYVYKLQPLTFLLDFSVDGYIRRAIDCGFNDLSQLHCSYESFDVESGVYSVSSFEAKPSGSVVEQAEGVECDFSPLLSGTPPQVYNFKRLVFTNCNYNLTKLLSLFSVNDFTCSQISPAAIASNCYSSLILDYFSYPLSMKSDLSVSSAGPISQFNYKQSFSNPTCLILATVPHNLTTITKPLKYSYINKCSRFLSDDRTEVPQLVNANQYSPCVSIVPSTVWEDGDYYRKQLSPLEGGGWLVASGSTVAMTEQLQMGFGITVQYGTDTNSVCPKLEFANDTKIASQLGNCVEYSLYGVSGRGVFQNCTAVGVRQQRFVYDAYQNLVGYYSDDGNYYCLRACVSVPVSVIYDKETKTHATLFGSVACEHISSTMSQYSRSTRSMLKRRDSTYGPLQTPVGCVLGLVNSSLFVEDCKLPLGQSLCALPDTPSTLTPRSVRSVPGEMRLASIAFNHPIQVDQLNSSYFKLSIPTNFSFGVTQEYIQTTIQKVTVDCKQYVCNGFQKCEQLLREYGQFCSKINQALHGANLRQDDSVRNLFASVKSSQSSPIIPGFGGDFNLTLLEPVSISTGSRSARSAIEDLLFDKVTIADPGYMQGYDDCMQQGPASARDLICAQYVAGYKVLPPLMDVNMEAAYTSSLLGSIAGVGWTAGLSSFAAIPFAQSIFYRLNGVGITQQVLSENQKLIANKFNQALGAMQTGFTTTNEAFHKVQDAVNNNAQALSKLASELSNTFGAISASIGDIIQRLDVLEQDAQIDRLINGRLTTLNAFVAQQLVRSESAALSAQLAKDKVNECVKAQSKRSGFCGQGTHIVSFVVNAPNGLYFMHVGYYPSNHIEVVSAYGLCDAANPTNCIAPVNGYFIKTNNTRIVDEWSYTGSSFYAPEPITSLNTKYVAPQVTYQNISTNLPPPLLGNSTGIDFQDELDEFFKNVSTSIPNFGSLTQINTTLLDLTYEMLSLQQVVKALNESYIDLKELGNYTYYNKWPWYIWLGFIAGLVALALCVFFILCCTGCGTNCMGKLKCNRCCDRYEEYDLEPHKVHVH
Test: cell-based or functional assay
Design: ND50 (PRNT with MERS-CoV): unit not given beside the values

| Binder | ND50 (PRNT with MERS-CoV) | ND50 antibody conc. (PRNT with MERS-CoV) [µg/mL] |
| --- | --- | --- |
| B3 | 54 | 0.19 |
| B4 | 0.68 | 14.8 |
| B5 | 95.7 | 0.1 |
| B9 | 14.9 | 0.67 |
| B7 | 0.63 | 15.8 |
| B10 | 39.5 | 0.25 |
| B1 | 0.78 | 12.8 |
| B8 | 0.58 | 17.3 |
| B11 | 956 | 0.01 |
| B6 | 35.6 | 0.28 |
| B2 | 6.6 | 1.51 |

Molecular target: T1, MERS-CoV S1 antigen (S1 domain, amino …)
Test: SPR, S1 antigen on CM5 chip, antibody as analyte (called avidity)

| Binder | Kd [nM] | koff [s⁻¹] | kon [M⁻¹ s⁻¹] |
| --- | --- | --- | --- |
| B3 | 6.6 | 0.000882 | 134000 |
| B5 | 0.695 | 4.43e-05 | 63800 |
| B9 | 0.153 | 0.000104 | 681000 |
| B10 | ≤ 0.0751 | ≤ 1e-05 | 131000 |
| B11 | 0.153 | 9.88e-05 | 648000 |
| B6 | ≤ 0.0751 | ≤ 1e-05 | 133000 |

Molecular target: T2, MERS-CoV RBD antigen (receptor binding …)
Test: SPR, RBD antigen on CM5 chip, antibody as analyte (called avidity)

| Binder | Kd [nM] | koff [s⁻¹] | kon [M⁻¹ s⁻¹] |
| --- | --- | --- | --- |
| B3 | 5.86 | 0.0014 | 238000 |
| B5 | 0.673 | 3.15e-05 | 46700 |
| B11 | 0.072 | 2.71e-05 | 376000 |
| B6 | 0.161 | 2.08e-05 | 130000 |

Molecular target: T2, MERS-CoV RBD antigen (receptor binding …)
Test: SPR, RBD antigen attached on a CM5 chip, antibody loaded, HBS-EP

| Binder | binding result |
| --- | --- |
| B9 | no binding (tested: 500 nM) |
| B10 | no binding (tested: 500 nM) |
